Data taken from patent US7211434B2, “Primitive neural stem cells and method for differentiation of stem cells to neural cells” (priority 2000, dated 2007).

Columns and labels:
Assay type in all cases: cell-based, mouse
ES cells = test: Primary neural sphere colony formation from ES cells in serum-free low-density culture, 7 days; settings: for primary colony formation, factor alone: ES cells at relatively low cell densities, serum-free, 7 days in vitro
Protocol: For passaging ES cells, cultures were disaggregated with 0.05% trypsin dissolved in Tris-saline/EDTA for 5–10 minutes, mechanically dissociated, centrifuged and resuspended in culture medium.
Passaged ES cells were washed (2 times), centrifuged and resuspended in chemically defined serum-free media (Reynolds et al., 1992; Reynolds & Weiss, 1996) composed of a 1:1 mixture of Dulbecco's modified Eagle's medium (DMEM GIBCO) and F-12 nutrient (GIBCO) including 0.6% glucose (Sigma), 2 mM glutamine (GIBCO), 3 mM sodium bicarbonate (Sigma), and 5 mM HEPFS buffer (Sigma). A defined hormone and salt mixture (Sigma) that included insulin (25 (g/ml), transferrin (100 (g/ml), progestrone (20 nM), putrescine (60 (M), and selenium chloride (30 nM) was used instead of serum. ES cells were plated at various cell densities in 24-well culture plates (Nunclon) in the presence of either LIF (1000 U/ml), LIF+FGF2 (10 ng/ml; Upstate Biotech or Sigma) and 2 (g/ml heparin (Sigma), or in the absence of any exogenous growth factors. For short term (4–24 hours) neural differentiation, ES cells were plated in identical culture conditions in 24-well culture plates (Nunclon) that were precoated with poly-L-ornithine (15 μg/ml, Gibco).
Limiting dilution analysis was performed as previously described (Bellows and Aubin, 1989; Tropepe et al., 1999). ES cells were plated in 24-well plates containing LIF (1000 U/ml). Cell numbers were adjusted to give a starting concentration of 5000 cells/ml from which serial dilutions were made. Final cell dilutions ranged from 1000 cells per well to 1 cell per well in 0.5 ml aliquots. Cultures were left undisturbed for 7 days after which time the fraction of wells not containing sphere colonies for each cell plating density was calculated and those points were plotted against the number of cells plated per well. The number of cells required to form one sphere colony, which reflected the proportion of neural stem cells in the entire population, was then determined from the point at which the regression line crossed the 0.37 level (37%). That is […], where F0 is the fraction of wells without sphere colonies and x is the mean number of cells per well. Based on a Poisson distribution of cells, F0=0.37 corresponds to the dilution at which there is one neural stem cell per well. The linear relationship observed between the cell density and the number of sphere colonies generated (regression coefficient R^2=0.99) can be accounted for by the clonal proliferation of a single rare population of cells.
Neuro2a (a murine neuroblastoma cell line) cells were seeded at 1×10^6 cells per 100 mm petri dish and transiently transfected with 10 μg of plasmid DNA by means of LipofectAMINE (Gibco) according to the manufacturer's instructions. After 6 hours, the culture media was changed to 10 ml of DMEM+10% FBS (Gibco). Twenty-four hours after transfection, culture media was changed to […] of serum-free media. Seventy-two hours after transfection, cell supernatant was collected and centrifuged to remove cellular debris. Supernatant media was aliquoted and stored at −70° C. […] Thus data from the 20% (v/v) experiments were used for the analysis. The plasmids pCS-V2 (gift from Dr. R. Moon) Hoppler et al., 1996) and pCS-cer-I (a gift from Dr. E. De Robertis) (Belo et al., 1997) were used.

[1] = tested on: ES derived neural colonies; test: RT-PCR gene expression in ES-derived neural colonies; settings: mCer-1 enriched media versus control media; data not shown
Protocol: Total RNA was isolated using the RNeasy extraction kit (Qiagen) and 1 μg of total RNA was used to synthesize cDNA with oligo-d(T)12-18 primers and MuMLV reverse transcriptase (Superscript II; Boehringer-Mannheim) at 42° C. for 1 hour. The PCR mixture (20 μl) consisted of 1 μl cDNA, 16 pmol 5 ″ primer, 16 pmol 3′ primer, specific for the gene in question 0.2 mM dNTP, 2 μl PCR reaction buffer and 0.8 U of Taq polymerase (Promega). cDNA was amplified in a thermal cycler (Perkin-Elmer) For all primer pairs denaturation for 30 sec at 94° C., annealing for 30 sec and extension at 72° C. was used. The sense and antisense primers, Mg^2 concentration, annealing temperature, extension time and number of PCR cycles were used for the following genes. Emx2: sense 5′-[…]-3′ (SEQ ID. No. 1), antisense 5′ […]-3′(SEQ. ID. No. 2), 1.65 mM Mg^2+, 56° C., 40 sec, 40 cycles. HoxB1: sense 5′-CCGGACCTTCGACTGGATG-3′(SEQ. ID. No. 3). antisense 5′-GGTCAGAGGCATCTCCAGC-3′(SEQ. ID. No. 4), 1.35 mM Mg^2+, 58° C., 40 sec, 40 cycles. Otx1: sense 5′-[…]-3′(SEQ. ID. No. 5). antisense 5′-[…]-3′(SEQ. ID. No. 6), 1.65 mM Mg^2+, 58° C., 40 sec, 40 cycles. Six3: sense 5′-[…]-3′(SEQ. ID. No. 7), antisense 5′-[…]-3′(SEQ. ID. No. 8), 1.35 mM Mg^2+, 56° C., 40 sec, 40 cycles. Brechyury: sense 5′-[…]-3′(SEQ. ID. No. 9), antisense 5′-[…]-3′(SEQ. ID. No. 10), 1.65 mM Mg^2+, 56° C., 1 min. 35 cycles. […]

[2] = tested on: ES-derived neural sphere colony cells; test: Subcloning of single ES-derived sphere colonies (secondary colony formation, self-renewal); settings: subcloned single primary colonies; factor alone
Protocol: Self-renewal of primary colony-formin) ES cells was assessed as previously described (Tropepe et al., 1999). Single sphere colonies were isolated, mechanically dissociated into a single cell suspension in 0.2 ml of serum-free media containing various combinations of LIF (1000 U/ml), […] (10 ng/ml), heparin (2 (g/ml), EGF (20 ng/ml; Upstate Biotech) or B27 supplement (1X) and cultured in 96-well (Nunclon) plates. Secondary sphere colonies were quantified after 7–10 days. A similar procedure was used for repeated passaging experiments. Cell viability after a 7-day culture period (sphere colony assay) or after 4–24 hours (short-term ES differentiation assay) was determined using trypan blue exclusion (1:2 dilution of 0.4% trypan blue; Gibco).

B1: CNTT: another member of the cytokine family of signaling molecules to which LIF belongs (protein, UniProt P26441 1-200, looked up)
Ciliary neurotrophic factor: MAFTEHSPLTPHRRDLCSRSIWLARKIRSDLTALTESYVKHQGLNKNINLDSADGMPVASTDQWSELTEAERLQENLQAYRTFHVLLARLLEDQQVHFTPTEGDFHQAIHTLLLQVAAFAYQIEELMILLEYKIPRNEADGMPINVGDGGLFEKKLWGLKVLQELSQWTVRSIHDLRFISSHQTGIPARGSHYIANNKKM
ES cells
  primary colony formation, factor alone: unable to substitute as a colony-promoting factor

B2: BMP4: Human recombinant BMP4 protein provided by Genetics Institute Inc. (protein)
chain: SPKHHPQRSRKKNKNCRRHSLYVDFSDVGWNDWIVAPPGYQAFYCHGDCPFPLADHLNSTNHAIVQTLVNSVNSSIPKACCVPTELSAISMLYLDEYDKVVLKNYQEMVVEGCGCR
ES cells; 5-fold increase in BMP4 concentration, LIF and FGF2
  further effect on number of sphere colonies at higher BMP4 concentration: did not further significantly attenuate the number of sphere colonies generated
ES cells; BMP4 5 ng/ml, ES cell cultures containing LIF and FGF2, 20 cells/ul, 7 days
  decrease in the number of sphere colonies generated: greater than 50%

B3: mCer-1: mouse Cerberus-like protein in supernatant from transiently transfected Neuro2a cells (protein)
chain: DLCVDGCQSQGSLSFPLLERGRRDLHVANHEEAEDKPDLFVAVPHLMGTSLAGEGQRQRGKMLSRLGRFWKKPETEFYPPRDVESDHVSSGMQAVTQPADGRKVERSPLQEEAKRFWHRFMFRKGPAFQGVILPIKSHEVHWETCRTVPFNQTIAHEDCQKVVVQNNLCFGKCSSIRFPGEGADAHSFCSHCSPTKFTTVHLMLNCTSPTPVVKMVMQVEECQCMVKTERGEERLLLAGSQGSFIPGLPASKTNP
ES cells; 20% (v/v) mCer-1 supernatant in 0.5 ml serum-free media+LIF, versus backbone vector supernatant
  increase in the numbers of primary neural stem cell colonies: ~50%
[1]
  Otx-1 expression in ES derived neural colonies: express Otx-1

B4: FGF2: fibroblast growth factor family growth factor, 10 ng/ml with heparin (protein)
chain: PALPEDGGAAFPPGHFKDPKRLYCKNGGFFLRIHPDGRVDGVREKSDPHVKLQLQAEERGVVSIKGVCANRYLAMKEDGRLLASKCVTEECFFFERLESNNYNTYRSRKYSSWYVALKRTGQYKLGSKTGPGQKAILFLPMSAKS
ES cells
  primary colony formation, factor alone: no cell colonies were generated
ES cells; combined with LIF
  primary colony formation, factor combined with LIF versus LIF alone: non-significant trend toward facilitating LIF-dependent colony formation
[2]
  secondary neural stem cell colony formation: dependent upon the presence of exogenous FGF2

B5: Noggin: BMP protein antagonist; human recombinant Noggin protein provided by Regeneron Pharmaceuticals Inc. (protein)
chain: QHYLHIRPAPSDNLPLVDLIEHPDPIFDPKEKDLNETLLRSLLGGHYDPGFMATSPPEDRPGGGGGAAGGAEDLAELDQLLRQRPSGAMPSEIKGLEFSEGLAQGKKQRLSKKLRRKLQMWLWSQTFCPVLYAWNDLGSRFWPRYVKVGSCFSKRSCSVPEGMVCKPSKSVHLTVLRWRCQRRGGQRCGWIPIQYPIISECKCSC
ES cells; Noggin 100 μg/ml, primary ES cell cultures with LIF+FGF2, 7 days
  increase in the number of sphere colonies generated: 50%
ES cells; Noggin from 10 μg/ml to 100 μg/ml
  further effect on number of sphere colonies with rising Noggin concentration: no additional increase in the numbers of sphere colonies generated
